± gives the uncertainty stated by the source.
Test: self-splicing fitness, log relative to wild type (ln ratio); higher = more splicing; Tetrahymena group I intron in knt gene, E. coli kanamycin selection, DiMSum; sequences stand for … in CUCUCU…GGAGGGAAAAGUUAUCAGGCAUGCACCUGGUAGCUAGUCUUUAAACCAAUAGAUUGCAUCGGUUUAAAAGGCAAGACCGUCAAAUUGCGGGAAAGGGGUCAACAGCCGUUCAGUACCAAGUCUCAGGGGAAACUUUGAGAUGGCCUUGCAAAGGGUAUGGUAAUAAGCUGACGGACAUGGUCCUAACCACGCAGCCAAGUCCUAAGUCAACAGAUCUUCUGUUGAUAUGGAUGCAGUUCACAGACUAAAUGUCGGUCGGGGAAGAUGUAUUCUUCUCAUAAGAUAUAGUCGGACCUCUCCUUAAUGGGAGCUAGCGGAUGAAGUGAUGCAACACUGGAGCCGCUGGGAACUAAUUUGUAUGCGAAAGUAUAUUGAUUAGUUUUGGAGUACUCGUGGUCG
How it was run: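 Fitness was computed with DiMSum as the error-weighted combination of replicate fold changes, kanamycin versus none, each normalised to wild type. The library randomised all eight intron nucleotides of the P1ex region, with the intron placed in the knt kanamycin-resistance gene on pET-22b(+) in E. coli BL21(DE3). Six replicate transformations were grown overnight at 37°C or 30°C on LB agar with or without 25 μg/mL kanamycin, plus 100 μg/mL carbenicillin, 50 μM IPTG and 0.2% rhamnose. Pooled colonies were amplicon-sequenced on an Illumina HiSeq 2500.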

Row | Sequence | self-splicing fitness (ln) (30 °C) | self-splicing fitness (ln) (37 °C)
1 | CGCUAGCAAUAUUACGAUCA | -0.592 ± 0.16 | -0.635 ± 0.13
2 | GGACAGCAAUAUUACGAGAG | -3.81 ± 0.18 | -2.09 ± 0.11
3 | GACCAGCAAUAUUACGCAAC | -1.35 ± 0.082 | -0.681 ± 0.1
4 | GAUAAGCAAUAUUACGUGUG | -1.96 ± 0.079 | -0.282 ± 0.094
5 | GUGAAGCAAUAUUACGUGCU | -1.99 ± 0.091 | -0.974 ± 0.1
6 | AGAAAGCAAUAUUACGCAGA | -2.03 ± 0.14 | -1.72 ± 0.13
7 | CUGGAGCAAUAUUACGUCUC | -2.68 ± 0.33 | -1.16 ± 0.36
8 | CGCCAGCAAUAUUACGGCUA | -0.576 ± 0.061 | -0.172 ± 0.068
9 | AUCGAGCAAUAUUACGCGAC | -1.15 ± 0.22 | -2.55 ± 0.4
10 | AGAAAGCAAUAUUACGGUAA | -2.66 ± 0.25 | -0.265 ± 0.14
11 | UUAGAGCAAUAUUACGAUAG | -0.594 ± 0.1 | -0.147 ± 0.14
12 | GUUAAGCAAUAUUACGGAAC | – | -1.43 ± 0.34
13 | GGUAAGCAAUAUUACGCUAA | -2.29 ± 0.18 | 0.0407 ± 0.15
14 | AAAGAGCAAUAUUACGUGCG | -2.69 ± 0.12 | -1.82 ± 0.13
15 | GGACAGCAAUAUUACGGACC | -1.35 ± 0.19 | -1.02 ± 0.23
16 | CAAUAGCAAUAUUACGCGGC | -3.91 ± 0.37 | –
17 | CUCCAGCAAUAUUACGAUCU | -4.21 ± 0.27 | -1.16 ± 0.12
18 | AUGAAGCAAUAUUACGCCUG | -0.59 ± 0.092 | -0.209 ± 0.11
19 | AUGAAGCAAUAUUACGAUAU | -0.294 ± 0.066 | 0.229 ± 0.083
20 | UGGCAGCAAUAUUACGAGCG | -0.577 ± 0.12 | 0.0222 ± 0.17
21 | UAAGAGCAAUAUUACGUACA | -2.95 ± 0.37 | -1.59 ± 0.4
22 | GACUAGCAAUAUUACGGCGC | 0.0438 ± 0.14 | -0.0936 ± 0.17
23 | GGGAAGCAAUAUUACGAGGU | -2.81 ± 0.31 | –
24 | CACAAGCAAUAUUACGGUCG | 0.139 ± 0.054 | 0.219 ± 0.064
25 | UGCGAGCAAUAUUACGCCUU | – | -1.7 ± 0.38

Row | Sequence | self-splicing fitness (ln) (30 °C) | self-splicing fitness (ln) (37 °C)
26 | GUUGAGCAAUAUUACGGUUC | -3.63 ± 0.4 | -1.58 ± 0.26
27 | AUAGAGCAAUAUUACGGAGU | -0.705 ± 0.093 | -1.03 ± 0.14
28 | AACCAGCAAUAUUACGGGAC | -2.39 ± 0.094 | -2.11 ± 0.09
29 | AAUGAGCAAUAUUACGAAAA | -3.58 ± 0.4 | -2.1 ± 0.27
30 | CCUUAGCAAUAUUACGAUCA | – | -2.51 ± 0.38
31 | UCAGAGCAAUAUUACGCUUU | -2.7 ± 0.32 | -2.84 ± 0.48
32 | UUAGAGCAAUAUUACGUACU | -3.2 ± 0.34 | -1.81 ± 0.31
33 | AUGGAGCAAUAUUACGCCUA | -0.868 ± 0.14 | -0.981 ± 0.18
34 | GCUUAGCAAUAUUACGCGAG | -2.04 ± 0.22 | -2.56 ± 0.33
35 | AUUGAGCAAUAUUACGUUAA | -3.84 ± 0.37 | -1.47 ± 0.26
36 | GCUCAGCAAUAUUACGAACG | -0.679 ± 0.15 | -0.216 ± 0.17
37 | GAUUAGCAAUAUUACGACGU | -0.442 ± 0.063 | 0.93 ± 0.089
38 | CGUAAGCAAUAUUACGGGUC | -4.24 ± 0.28 | -2.45 ± 0.2
39 | CCUGAGCAAUAUUACGCUCC | – | -3.8 ± 0.33
40 | UGAAAGCAAUAUUACGUCUC | -3.36 ± 0.24 | -2.18 ± 0.23
41 | AAUUAGCAAUAUUACGAAAG | -3.12 ± 0.19 | -1.51 ± 0.18
42 | UAGAAGCAAUAUUACGUUCG | -0.157 ± 0.067 | 0.264 ± 0.088
43 | ACCGAGCAAUAUUACGCGAA | -2.33 ± 0.32 | -3.17 ± 0.4
44 | AACCAGCAAUAUUACGCUUG | -1.94 ± 0.089 | -1.07 ± 0.11
45 | CCUCAGCAAUAUUACGUGAU | -2.84 ± 0.2 | -2.71 ± 0.43
46 | GUCUAGCAAUAUUACGCUUU | -0.366 ± 0.066 | -0.192 ± 0.08
47 | UCUUAGCAAUAUUACGGCAG | -3.36 ± 0.26 | -2.23 ± 0.3
48 | ACCUAGCAAUAUUACGCAAA | -2.56 ± 0.3 | -1.76 ± 0.18
49 | GCUGAGCAAUAUUACGCAGA | -2.47 ± 0.29 | -1.6 ± 0.32
50 | AGACAGCAAUAUUACGGCAC | -0.629 ± 0.086 | -1.09 ± 0.094

Row | Sequence | self-splicing fitness (ln) (30 °C) | self-splicing fitness (ln) (37 °C)
51 | CGACAGCAAUAUUACGUAAA | -3.02 ± 0.15 | -2.28 ± 0.21
52 | AGGUAGCAAUAUUACGAGUU | -2.033 ± 0.015 | -0.955 ± 0.033
53 | UCUUAGCAAUAUUACGGAGA | – | -2.76 ± 0.38
54 | CAGGAGCAAUAUUACGGGCA | -2.48 ± 0.15 | -2.35 ± 0.22
55 | GAAUAGCAAUAUUACGCUGG | -2.17 ± 0.33 | -0.278 ± 0.24
56 | AGCUAGCAAUAUUACGCGUU | -2.62 ± 0.091 | -2.11 ± 0.12
57 | CGGAAGCAAUAUUACGACAU | -3.637 ± 0.026 | -2.32 ± 0.038
58 | GAUUAGCAAUAUUACGCCAU | – | -1.97 ± 0.47
59 | ACAUAGCAAUAUUACGGACC | -1.56 ± 0.12 | -1.84 ± 0.23
60 | AACUAGCAAUAUUACGCGCA | -0.47 ± 0.099 | 0.116 ± 0.12
61 | UGUGAGCAAUAUUACGUUGC | – | -1.57 ± 0.37
62 | AGAGAGCAAUAUUACGGCAG | -1.51 ± 0.24 | -1.42 ± 0.43
63 | CAGAAGCAAUAUUACGCUGU | -4.53 ± 0.37 | -2.83 ± 0.21
64 | GUUAAGCAAUAUUACGGAAU | -2.75 ± 0.14 | -1.39 ± 0.13
65 | GCUCAGCAAUAUUACGGGUG | -0.435 ± 0.055 | -0.211 ± 0.074
66 | GGUCAGCAAUAUUACGAAAC | -0.257 ± 0.22 | -0.396 ± 0.22
67 | CUAAAGCAAUAUUACGAUAG | 0.0858 ± 0.072 | 0.313 ± 0.085
68 | AUAAAGCAAUAUUACGCUGU | -0.921 ± 0.09 | -0.246 ± 0.1
69 | AAGCAGCAAUAUUACGCGUG | -3.76 ± 0.14 | -2.25 ± 0.11
70 | UAAGAGCAAUAUUACGAGAA | – | -1.68 ± 0.46
71 | GAAGAGCAAUAUUACGUGCA | -2.38 ± 0.18 | -1.24 ± 0.2
72 | UAUUAGCAAUAUUACGCUUG | -0.91 ± 0.11 | -0.336 ± 0.16
73 | CCACAGCAAUAUUACGCGAA | -3.53 ± 0.2 | -3.29 ± 0.21
74 | AGACAGCAAUAUUACGCGAU | -2.68 ± 0.14 | -1.29 ± 0.15
75 | AUCGAGCAAUAUUACGGAUU | -3.48 ± 0.22 | -1.26 ± 0.17

Row | Sequence | self-splicing fitness (ln) (30 °C) | self-splicing fitness (ln) (37 °C)
76 | GAAUAGCAAUAUUACGUCAC | -2.47 ± 0.17 | -1.31 ± 0.17
77 | AACAAGCAAUAUUACGUCAU | -2.35 ± 0.075 | -1.59 ± 0.082
78 | GCCAAGCAAUAUUACGUUGG | -3.36 ± 0.27 | -2.6 ± 0.19
79 | AAACAGCAAUAUUACGGCCC | -2.15 ± 0.2 | -0.625 ± 0.23
80 | CGCCAGCAAUAUUACGAGUG | -2.41 ± 0.07 | -1.59 ± 0.11
81 | ACUUAGCAAUAUUACGACUU | -0.0888 ± 0.085 | -0.156 ± 0.1
82 | UCUGAGCAAUAUUACGGCGG | -0.492 ± 0.094 | -0.249 ± 0.14
83 | CUCAAGCAAUAUUACGUUAG | -2.26 ± 0.062 | -1.47 ± 0.075
84 | CAGUAGCAAUAUUACGGGGA | -3.9 ± 0.4 | -2.23 ± 0.21
85 | UUUGAGCAAUAUUACGUCGG | -3.06 ± 0.21 | -1.28 ± 0.18
86 | AGUAAGCAAUAUUACGAACA | -0.711 ± 0.13 | -0.282 ± 0.14
87 | UAUAAGCAAUAUUACGGUCU | -1.22 ± 0.13 | -1.05 ± 0.17
88 | AGGUAGCAAUAUUACGACAA | -0.614 ± 0.018 | -0.295 ± 0.035
89 | CGAAAGCAAUAUUACGCCGU | -2.98 ± 0.16 | -0.862 ± 0.12
90 | UUGAAGCAAUAUUACGGAUA | -0.345 ± 0.08 | -0.413 ± 0.1
91 | UGUAAGCAAUAUUACGUUCC | -4.53 ± 0.33 | -0.21 ± 0.19
92 | GGGCAGCAAUAUUACGACUG | -2.84 ± 0.2 | -0.716 ± 0.27
93 | AGGGAGCAAUAUUACGUCUA | -2.54 ± 0.21 | -2.26 ± 0.21
94 | GACAAGCAAUAUUACGAACU | -0.214 ± 0.066 | 0.284 ± 0.092
95 | AACUAGCAAUAUUACGACAU | -0.187 ± 0.011 | 0.0705 ± 0.032
96 | CUGAAGCAAUAUUACGGAGA | -3.62 ± 0.38 | -1.97 ± 0.32
97 | AAGCAGCAAUAUUACGUCGC | -2.95 ± 0.19 | -2.51 ± 0.31
98 | CAGGAGCAAUAUUACGUACG | -1.06 ± 0.088 | 0.312 ± 0.13

Source: the supplement of paper PMC7877785
